Here are results for 41 sequences from the nanobody polyreactivity screen of Harvey et al. (2022).

The data set can be described thus: yeast display, Sf9 membrane polyspecificity reagent, FACS + sequencing; frameworks hold sequencing errors. The essentials: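 Sorting gates, low and high (top ~1%), were placed on anti-HA fluorescence to track expression and on streptavidin fluorescence to track reagent binding. A clone's polyreactivity label is taken from the gate it came out of. The reagent was 10% biotinylated, detergent-solubilized Sf9 membrane, applied for 1 hour at 4 °C to galactose-induced yeast display cells.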
For the sequence “QVQLVESRGGLVQAGGSLRLSFPASGFTQEFYAMGWYRQAPGKERELVASISSGGRTNYADSVKGRFTISRDNAKYTVYLQMNSLKPEDTAVYYFAAEYRSWGRYRYRFNYWGQGTQVTVSS”, the “polyreactivity (PSR sort gate)” value was “high polyreactivity”.

Regarding “QVQLVESRGGLVQAGGSLRLSSAASGSTYGVNPMGWYRQAPGKERELVAAISVSGGRTYYADSVKGRFTISRDNAKNTVDLQMNSLKPEDTAVYYCNADGLYAYVWYDYWGQGTQVSVSS”, the “polyreactivity (PSR sort gate)” value is “low polyreactivity”.

Consider “QVQLVESRGGLVQAGGSLRLSYAASGITFRKYAIGWYRQAPGKESELVAAISWSGGSTYYADSVKGGFTISRDNAMNTVYLQMNSMKPEDTAVYYCAAPHWSPYDYWGQGTQVTVSS”, for which the “polyreactivity (PSR sort gate)” value is “high polyreactivity”.

As to “QVQLVESRGGLVQARGSLRLSCAASGSTFVYYALGWYRTAPGTERELVAAITQRGGNTYYADSVKGRFTISRDNAKNTVYLQMNSLKPVDTAVYYCATKSYSQYFKFYYWGQGTQVTVSS”, the “polyreactivity (PSR sort gate)” value is “high polyreactivity”.

“QVQLVESRGGLVQEVGSLRLSCAASGRIFYRYYMGWYRQAPGKERELVASITRSGITHYADSVKGRFTISRDNATNTVYLQMNSLKPEDTAVYYCAVDLLRRGFPTVVTTYDYWGQGTQVTVSS”: the “polyreactivity (PSR sort gate)” value is on record as “high polyreactivity”.

Take “QVQLVESRGGLVQSGGSLRLSCAASGSIFEIYHMGRYRQAPGNERELVASIRTSGGSTYYADSVKGRFTISRDNAKNTVYLQMNSLKPEDTAVYYCAAVGRSYYGHDYWGQGTQVTVSS”: the “polyreactivity (PSR sort gate)” value is recorded as “low polyreactivity”.

As to “QVQLVESRVGLVQAGGSLRLSCAASGRIFHYYAMGWYRQAPGKERELVAAINASGTSTYYADSVKGRFTISRDNAKNTVYLQMNSLKPEDTAVYYCAAQPYYRGGSYSYTRNSKLIYWGQGTQVTVSS”, the “polyreactivity (PSR sort gate)” value was “high polyreactivity”.

Take “QVQLVESRWRFVQAGGSLRLSCAASGSIFADYAMGWYRQAPGKERELVAAITFSGGSTYYADSVKGRFTISRDNAKNTVYLQMNSLKPEDTAVYYCASRWRYRYYSWGQGTQVTVSS”: the “polyreactivity (PSR sort gate)” value is given as “high polyreactivity”.

For “QVQLVESSGGLVQAGGSLSLICAASGIIFYGYAMGWYRQAPGKERELVASIRSGSNTYYADSVKGRFTISRDNAKNTVYLQMNSLKPEDTAFYSCAARVVPATFRFIRYPHPYYYWGQGTQVTVSS”, the “polyreactivity (PSR sort gate)” value was “low polyreactivity”.

Consider “QVQLVESVGALVQAGGSLRLSCAASGSIFIPYAMGWYRQAPGKEWEFVATITFGAASTYYADSVKGRFTISRDNAKNTVYLQMNSLKPEDTAVYYCNAEGYVYPYYREGDYWGQGTQVTVSS”, for which the “polyreactivity (PSR sort gate)” value is “low polyreactivity”.

For “QVQLVESVGCLVQAGGSLRLSCAASGFIFGSYTMGWYRPAPGKESELVAAISSSGGNTYYADSVKGRFTISRDHAKNTVYLQMNSLKPEDTAVYYCAVDYIYDDAYNYWGQGTQVTVSS”, the “polyreactivity (PSR sort gate)” value is “high polyreactivity”.

Take “QVQLVESVGCLVQAGGSLRLSCAASGRIFTSNAMGWYRQAPGKERELVAAITRRGGTTYYADSVKGRFTISRDNSKNTVYFQMNSLNPEDTAVYYCATIITVASWYDYWGQGTQVTVSS”: the “polyreactivity (PSR sort gate)” value is recorded as “low polyreactivity”.

As for “QVQLVESVGGFVQAGGSLRLSCAASGFTFRIYAMGLYRKATVKERELVAGITWSVGSTYYADSVKGRFTISRDNAKNTVYLQMNSLKPEETAVYYCAVRRNQHVVQLYYWGQGTQGTVSS”, the “polyreactivity (PSR sort gate)” value is listed as “low polyreactivity”.

For the sequence “QVQLVESVGGFVQAGGSLRLSGAASGRTFNFNTMGWSRQAPGKERELVASITSGGSTNYADSVKVRFTISRDNAKNTVYLQMNILKPEDPAVYYCAVTVSGPYAYDYWGQGTQVTVSS”, the “polyreactivity (PSR sort gate)” value is on record as “low polyreactivity”.

As to “QVQLVESVGGFVQAGGSLRLSSAASGFIFRSYAMGSYRQAPGKERELVAVISRRGVNTHYADSVKGRFTISRDYAKYTVYLQMNSLKPEDTAVYDCAKGLTALGDYWGQGSQVTVSS”, the “polyreactivity (PSR sort gate)” value is “high polyreactivity”.

With “QVQLVESVGGFVQARGSLRLSCAASGFTFSYNAMRWYSQAPGKERELVATIRSSGGSTNYADSVKGRFTISRDNAKNTVYVQMNSLKPEDTAVYYCAADFSYYSTYDYWGLGTQVTVSS”, the “polyreactivity (PSR sort gate)” value was “low polyreactivity”.

On to “QVQLVESVGGIVQAGGSLRLSCAASGRIFGTNTMGWYRQAPGKERELVAGISSSGDSTYYADSVKGRFTISRDNAKNTVYLQMNSLKPEDTAVYYCNVYDYPTYDYWGQGTQVTVSS”, for which the “polyreactivity (PSR sort gate)” value is “low polyreactivity”.

Consider “QVQLVESVGGLLQAGGSLRLSCAASGSIFFVYTMGWYRQAPGKERELFATITDSDGGTYYADSVKGRFTISRDNAKNTVYVQMNSLKPEDTAVYYCAAEVEVYFAIYEYWGQGTQVTVSS”, for which the “polyreactivity (PSR sort gate)” value is listed as “low polyreactivity”.

Turning to “QVQLVESVGGLVKAGGSLRLSCAASGSIFGTNAMGWYRQAPGKERELVAVISDGGSTYYADSVKGRFTISRENAKNTVYLQMNSLKPADTAVYYCNTPLESPFYSRVGTTESDHWGQGTQVTVSS”, the “polyreactivity (PSR sort gate)” value is reported as “low polyreactivity”.

For “QVQLVESVGGLVLAGARLRLSCAASGRIFRFYAMGWYREAPGKERELVAAISSGGRTYSADSVKGRFTISRDNAKNTVYLQMNSLKPEDTAVYYCNTPYTVRGRYTSDYWGQGTQVTVSS”, the “polyreactivity (PSR sort gate)” value is “high polyreactivity”.

As for “QVQLVESVGGLVPAGGSLRLSCAASGFTYPAYTMGWYRQAPGKERELVAAITSSGGNTYYADSVKGRFTISRDNAKNTVYLQMNSLKPEDTAVYYCYADASSSPYTDRQYIGADDSWGQGTQVTVSS”, the “polyreactivity (PSR sort gate)” value was “low polyreactivity”.

Take “QVQLVESVGGLVQAGGILRLSCAASGSTFLDNAMGLYRQAPGKERELVAAITQSGSSTYYADSVKGRFTISRDNAKNTVYLQMNSLKPEDTAVYYCAADVPIISFDYWGQGTQVTVSS”: the “polyreactivity (PSR sort gate)” value is “low polyreactivity”.

In the case of “QVQLVESVGGLVQAGGRLRLSCAASGLIFDDYSMGCYRQAPGKEREFVSAISWSDGTTYYADSVKGRFTISRDNAKNTVYLQMNSLKPEDTAVYYCAARLARAGYWRRNYYYWGQGTQVTVSS”, the “polyreactivity (PSR sort gate)” value is recorded as “high polyreactivity”.

Take “QVQLVESVGGLVQAGGRLRLSCAASGLTFTHYTMGWYIQAPGKERELVAAISQTGGSTYYADSVKGRFTISRDNEKNTVYLQMNSQKPEDTADYYCSRVFPRPRPGYYNWGQGTQVTVSS”: the “polyreactivity (PSR sort gate)” value was “high polyreactivity”.

Consider “QVQLVESVGGLVQAGGSLGLTCAASGFIFRYYAMGWYRQAPGLERELVAPINASGGRTYYADSVKGRFTISRDNARNTLYLQMNSLKPEDTAVYYCAAYRSYQTFDYWGQGTQVTVSS”, for which the “polyreactivity (PSR sort gate)” value was “high polyreactivity”.

As to “QVQLVESVGGLVQAGGSLLLSCAASGRTFTKYAMGWYRLAPGKEGELVAAISRSGTSTYYADSVKGRFTISRDNEKNTVYLQMNSLKPEDTAVYYCATVSAKYHSVHFGYWGQGTQVTVSS”, the “polyreactivity (PSR sort gate)” value is on record as “high polyreactivity”.

As to “QVQLVESVGGLVQAGGSLRLICAASGRIFVHYAMGWYRQAPGKERELVAAISWNGGRTFYADSVKGRFTISRDNAKNTVYLQMNSLKPEDTAVSYCAARSRYSLDYWGQGTQVTVSS”, the “polyreactivity (PSR sort gate)” value is “high polyreactivity”.

For “QVQLVESVGGLVQAGGSLRLICAASGSIFIGYAMGWYRQAPGKERELVAAISNSGGRTYYADSVKGRFTISRDYAKNTVYLQMNSLKPDDTAVYYCAARLRYRGRRYDYWGQGTQVTVSS”, the “polyreactivity (PSR sort gate)” value was “high polyreactivity”.

Regarding “QVQLVESVGGLVQAGGSLRLICAASGSIFSRYAMGWYRQAPGKEREFVARITQRGGSTYYADSVKGRFTISRDNAKNTVYLQRQSLKPEDTAVYYCNADHYRRLLAEDYWGQGTQVTVSS”, the “polyreactivity (PSR sort gate)” value is “low polyreactivity”.

For “QVQLVESVGGLVQAGGSLRLSCAASGDTFTSYAMGRYRQAPGKVRELVAAISRRGGSTYYAESVKGRFTISRDNAKNTVYLLMNSLKPEDTAFYYCAAKSYSYTEFDYGGQGTQVTVSS”, the “polyreactivity (PSR sort gate)” value is recorded as “high polyreactivity”.

For the sequence “QVQLVESVGGLVQAGGSLRLSCAASGFIFGSNAIGWYRQAPGKERELVAAITYSGASTYYADSVKGRFTISRDNAKNTVYLQMNRLKPEDTAVYYCATRYSVFVSGRFNYWGQGTQVTVSS”, the “polyreactivity (PSR sort gate)” value is given as “low polyreactivity”.

Regarding “QVQLVESVGGLVQAGGSLRLSCAASGFIFKSYSMGWYRQAPGKERELVAAISGRGGSTYYADSVKGRFTISRDNAKNTVYLQMNSLKPEDTAVYYCNVVPSTYYQYDYWGQGTQVTVSS”, the “polyreactivity (PSR sort gate)” value was “high polyreactivity”.

Take “QVQLVESVGGLVQAGGSLRLSCAASGFIFPYYVMGWYRQAPGKERELVAAITSVGITYYADSVKGRFTISRDNAKNTVYLQMNSLKPEDTAVYYCAADYKYFYDWGSFVEDEYWGQGTQVTVSS”: the “polyreactivity (PSR sort gate)” value is given as “high polyreactivity”.

As for “QVQLVESVGGLVQAGGSLRLSCAASGFIFRPYAMGWSRQAPGKERELVAAISWSGDRTYYADSVKGRFTISRDNAKNTVYLQMNSLKPEDTAVYYCAAEGVTRDYDYWGQGTQVTVSS”, the “polyreactivity (PSR sort gate)” value is “low polyreactivity”.

For “QVQLVESVGGLVQAGGSLRLSCAASGFIFSYYAMGRYRQAPGKERELVATINFSGGRTYYADSVKGRFTISRDNAKNTVYLQMNSLKPEDTAVYYCAAVARSRAAPGVGYWGQGTQVTVSS”, the “polyreactivity (PSR sort gate)” value is listed as “high polyreactivity”.

Turning to “QVQLVESVGGLVQAGGSLRLSCAASGFIFTHYAMGWYRQAPGKERELVAAISSGGSTYYADSVKGRFTISRDNAKNTVYLQMNSLKPEDTAVYYCAAVWPWRYYATGENYWGQGTHVTVSS”, the “polyreactivity (PSR sort gate)” value is “high polyreactivity”.

As for “QVQLVESVGGLVQAGGSLRLSCAASGFISYYYAMGWYRQAPGKEREFVAAITSSGGSTRYADSVKGRFTISRDNAKNPVYLQMNSLKPEDTAVYYCAARKARPPFPHPFDYYWGQGTQVTVSS”, the “polyreactivity (PSR sort gate)” value was “low polyreactivity”.

With “QVQLVESVGGLVQAGGSLRLSCAASGFIYGWNAMGWYRQAPVKERELVASIRSSGGTTYADSVKGRFTISRDNAKNTVYLQMNSLKAEDNAVYYCARRVLGLLELDYWGQGTQVTVSS”, the “polyreactivity (PSR sort gate)” value was “low polyreactivity”.

“QVQLVESVGGLVQAGGSLRLSCAASGFTFDYYSMGWYRQATGKERELVAAITTAGSTNYADSVKGRFTISRDNAKNTVSLQINSLKPEDTAVYYCAAYWWPWDISWDDYWGQGTQVNVSS”: the “polyreactivity (PSR sort gate)” value is reported as “high polyreactivity”.

As to “QVQLVESVGGLVQAGGSLRLSCAASGFTFGRYAMGWYRQAPGKESELVATITRTGSTNYADSVKGRFTISRDNAKNTVYLQMNSLKPEDTAVYYCAKDWAYRRHWVGFYYWGLGTQVTVSS”, the “polyreactivity (PSR sort gate)” value is listed as “low polyreactivity”.

In the case of “QVQLVESVGGLVQAGGSLRLSCAASGFTFVGNTMGWYRQAPGKERELVAAIRGRDGRTYYADSVKGRFTISRDNAKNTVYLQMNSLKPEDTAVYYCNVDVKYSVRSEFDFWGQGTQVTVSS”, the “polyreactivity (PSR sort gate)” value is “low polyreactivity”.
